Data from the supplement of paper PMC10567573.
± gives the standard deviation.

Experiment: protein stability index of a GFP-peptide fusion (GPS, HEK-293T) (PSI 1-6); higher = more stable
[1] = treatment: DMSO, c terminus: a fixed tail appended
[2] = treatment: MLN4924 1 uM, 8 h, c terminus: a fixed tail appended
[3] = treatment: DMSO, c terminus: native
[4] = treatment: MLN4924 1 uM, 8 h, c terminus: native
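Also: 24-mer peptide tiles fused after GFP, lentivirally expressed, FACS-sorted into six equal bins by GFP/DsRed ratio, decoded by Illumina sequencing, PSI is the read-weighted mean bin number.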

Sequence	protein stability index [1]	protein stability index [2]	protein stability index [3]	protein stability index [4]
FIYTAKLSLNMDNLQDTLEAASFL [KLHL13]	2.65 ± 0.54	2.96 ± 0.48		
SISLMYGGSKRKSSFFSSPPYFED [SLA]	2.37 ± 0.38	2.59 ± 0.2		
WVGFDDVESFKTKVSYLKQKGLGG [CHIT1]	2.36 ± 0.33	2.69 ± 0.36		
HQYWPAERSARYQYFVVDPMAEYN [PTPRD]	2.4 ± 0.19	2.51 ± 0.32		
ISPRGAGYTFGQDISETFNHANGL [PPP2CA]	3.17 ± 0.26	3.23 ± 0.41		
LLSSGFEIDTPDKFGRTCLHAAAA [ANKRD44]	2.95 ± 0.39	2.95 ± 0.035		
YQLELQCCIDWTHVTDPLIGCKKP [SMG5]	2.38 ± 0.45	2.1 ± 0.3		
CKARMERDGYGMTPLLAASVTGHT [FEM1A]	2.9 ± 0.32	2.87 ± 0.2		
YTTEFHELEKIGSGEFGSVFKCVK [WEE1]	2.49 ± 0.85	3 ± 0.47		
EIRRKEKEAVLAMEKKSKPKNSVW [RIT1]	4.12 ± 0.17	4.29 ± 0.38		
AFCALVHSFFPDAFDYNSLSPTQR [SMTNL2]	2.61 ± 0.56	2.21 ± 0.31		
IQDRLSNTLQTYIRCRHPPPGSHL [VDR]	2.73 ± 0.17	2.74 ± 0.22		
TVFDANDNAPVFTLPEYRVSVPEN [PCDHGA10]	3.53 ± 0.11	3.86 ± 0.16		
FGVKYNPYTRSIQILKDTKSITSA [TPH1]	2.43 ± 0.63	2.46 ± 0.11		
IQRPANAIKEMIENCLDAKSTSIQ [MLH1]	4.16 ± 0.16			
ILSGHEHAVSTCHFCVDDTKLLSG [WDR88]	2.71 ± 0.35	2.92 ± 0.35		
EAITDEERAPTATFHDSKHNIVHV [WDFY2]	4.72 ± 0.13	4.63 ± 0.3		
LIHVYLPLTSHILRAFVNSQIQGH [SNX8]	3.2 ± 0.27	3.19 ± 0.52		
WILFPLLGCYAVYSLLYLEHKGWY [CLPTM1]	2.9 ± 0.28	3.4 ± 0.072		
VQELVLEDLQDGDVRMGGSFRGAF [NET1]	3.38 ± 0.18	3.47 ± 0.12		
PSPASEQTVTVEEAAGGESALAPS [MAP2]	5.45 ± 0.53	5.5 ± 0.15		
FDPAEKYKMDHRRRGIALIFNHER [CASP6]	2.89 ± 0.2	3.19 ± 0.39		
LELTVRRVQGVLRGRAREREQLQA [HES6]	3.7 ± 0.45	3.64 ± 0.43		

Sequence	protein stability index [1]	protein stability index [2]	protein stability index [3]	protein stability index [4]
GVGTSMEGASPLSERCQRQLQSLC [FANCE]	3.9 ± 0.16	3.78 ± 0.15		
PVRDECEERNRFTETREEDVTDEH [FAM9B]	5.44 ± 0.21	5.66 ± 0.24		
SLSRNNSFRRNVGRVLLANSTQAD [FBXO34]	3.15 ± 0.24	3.21 ± 0.3		
WSIPWKWLFGATAVALGGVALSVV [FKBP8]	4.11 ± 0.43	3.98 ± 0.14		
SLARLQQLLFVIFLLLYLFTLGTN [OR10K2]	2.78 ± 0.51	2.13 ± 0.53		
DLRINLWNFEITNQSFNIVDIKPA [PPP2R2B]	2.47 ± 0.86	2.4 ± 0.07		
SPADYLRFQDLVLRMLEYEPAARI [DYRK1B]	2.56 ± 0.35	2.43 ± 0.33		
EDQPINLCDKLPPATALGTASYPS [NOL4L]	4.6 ± 0.19	4.62 ± 0.084		
NVFKELQIMQGLEHPFLVNLWYSF [STK32A]	2.74 ± 0.55	2.49 ± 0.53		
SLISGCPNIQEAVEGAMHIQECVP [CRYL1]	3.87 ± 0.29	3.98 ± 0.18		
RAGLDLPTIDTGYDSQPQDVLGIR [TRAF3IP2]	4.25 ± 0.37	4.29 ± 0.18		
SQPIDLSACTVALHIFQLNEDGPS [TRIP13]	2.56 ± 0.2	2.51 ± 0.28		
FRSGALDLDSCSRDGALLGCSLTA [MYORG]	2.58 ± 0.12	2.34 ± 0.32		
ERDFPCPVCRKTSRYRSLRPNRQL [TRIM39]	2.93 ± 0.46	3.23 ± 0.45		
PDEEPMHYGNIMYDRRVIRGNTYA [RSPH3]	3.5 ± 0.27	3.41 ± 0.33		
FLDLERPPTTPQNEEIRAVGRLKR [MFF]		4.07 ± 0.3		
CRCKNSNTVYCKLESCPSRGQGKP [SPRY1]	3.66 ± 0.59	3.77 ± 0.29		
LLIEGRSVNEHTEEGESLLCLACS [ANKRD17]	3.22 ± 0.6	3.27 ± 0.91		
YLEKYYNLKNDGRQVEKRRNSGPV [MMP1]	2.68 ± 0.57	3.27 ± 0.4		
QGQPAMEGHCVIQVDVGDVNDNAP [PCDHGC5]	4.97 ± 0.5	4.78 ± 0.075		
VENNRRDVEAWFNTQTEELNQQVV [KRT36]	4.67 ± 0.27	4.65 ± 0.14		
PSVADNLLASSDAALSASMASLLE [SERTAD1]	4.51 ± 0.18	4.39 ± 0.15		
PEPRSEVVPARLKRASAPTFDNDY [RIPK4]	4.86 ± 0.47	4.63 ± 0.36		

Sequence	protein stability index [1]	protein stability index [2]	protein stability index [3]	protein stability index [4]
MDTQFTIRARELQNIYKCIMLKNI [IQUB]	2.27 ± 0.24	2.37 ± 0.3		
KGTILYLQKDEYRPDKALSEGDLK [PSD2]	3.99 ± 0.21	4.04 ± 0.18		
EEGLADEEKKLRRSQHARKETEFL [STK38L]	5.33 ± 0.08	5.2 ± 0.39		
NILVTSGGTVKLADFGLARIYSYQ [CDK4]	2.45 ± 0.81	2.13 ± 0.37		
RDPLQTDTLQNDYFAIKQEVVTPD [ETS1]	4.89 ± 0.42	4.9 ± 0.47		
RVTSLANLISPVRNGAVRRFGQTI [NET1]	2.55 ± 0.14	2.63 ± 0.33		
KTIDLGAAAHYTGDKASPDQNAST [CLINT1]	5.26 ± 0.31	5.41 ± 0.49		
LLSRINKDWLEGTVRGATGIFPLS [NCF4]	2.17 ± 0.47	2.51 ± 0.74		
SRSLLTGGYNLASVSVWDLAAPSL [TLE6]	2.38 ± 0.27	2.29 ± 0.14		
MDGSGEQPRGGVSSRIEQGEWGGR	4.58 ± 0.43	4.58 ± 0.17		
VVEEELFHQQGTPRASNRSCAIM [LMNB1]			2.77 ± 0.3	3.16 ± 0.4
NALLSKRLLALTSSDLGCQPSRT [TMEM192]			2.52 ± 0.72	2.61 ± 0.3
DKILALVPETIHDELQQSFQKSHN [PRIM1]	3.85 ± 0.42	3.93 ± 0.47		
PAPNKKRKSSKLIMELTGGGQESS [MYOZ1]	4.82 ± 0.19	4.73 ± 0.16		
WAISSWFRRGPAPQDQAGPGGAPR [CLPTM1]	2.75 ± 0.47	3.21 ± 0.48		
VKAKEQIENYKKQTRNGLGKDHEI [FUT8]	4.59 ± 0.17	4.76 ± 0.16		
EEAAMQKCLVTEAQTLLRLSGVQR [RSAD1]	3.51 ± 0.15	3.52 ± 0.35		
SFPLWYEEALKDEEERAQDRIATT [MAGEA10]	4.71 ± 0.19	4.5 ± 0.27		
TNDVETARCTAGTLHNLSHHREGL [CTNNB1]	3.89 ± 0.19	4.07 ± 0.18		
TRTGPSAWETKKILAVSFAPLIQP [PCMTD2]	2.14 ± 0.29	2.31 ± 0.31		
GKKRCKDIKRLLVNFMYLQSLLQP [SMG5]	2.428 ± 0.007	2.48 ± 0.41		
TEWACILRRKTPRHKQPTLLMVRA [C6orf223]	2.19 ± 0.57	2.17 ± 0.097		
GPVRSSSGMGGRAPVSRGRDSYGG [RBMX]	4.32 ± 0.12	4.53 ± 0.17		

Sequence	protein stability index [1]	protein stability index [2]	protein stability index [3]	protein stability index [4]
PGSTSPLETSGNPNGRYGSGYLLA [SLC6A17]	3.44 ± 0.19	3.72 ± 0.33		
SSSSILRWLPEKRANPCLSSSNEH [ELOA2]	3.4 ± 0.19	3.54 ± 0.25		
CLAQGWKQYQQRAFGWFRCSSCQR [RTP4]	2.15 ± 0.15	2.27 ± 0.28		
ITATSLLGTRESDTEVITVEKSSP [BCL2L13]	4.91 ± 0.19	5.01 ± 0.16		
LGSGPDRELRKPEEPENGEPTAAA [PWWP2B]	5.52 ± 0.18	5.25 ± 0.47		
CEEALCSNLSVENVADTLVLADLH [SPOPL]	4.52 ± 0.086	4.48 ± 0.22		
CHSFAAAADGPTVCCNPYHFSRLC [SMAD6]	2.4 ± 0.35	2.22 ± 0.2		
IGESMYGDFEEAFDHLQNRLIATK [TENT5C]	3.63 ± 0.12	3.59 ± 0.067		
LLMLENFIDGKFLPCSSYIDSYDP [ALDH8A1]	1.97 ± 0.65	2.05 ± 0.56		
ELSKDAQASAAPAAPLPERNSLSA [SLC29A1]	5.15 ± 0.12	5.05 ± 0.27		
PGRLTEALCLEVRPTYFEMKNEKL [RNF180]	4.9 ± 0.21	4.9 ± 0.15		
SSRYDDYSSSRDGYGGSRDSYSSS [RBMX]	4.37 ± 0.25	4.52 ± 0.19		
GSSSFSLKGYPSLMRSQSPKAQPQ [TRIM29]	3.76 ± 0.26	3.73 ± 0.28		
WWTNWVIPAISAVAVALMYRLYMA [CYB5A]	3.22 ± 0.15	3.29 ± 0.36		
PSGEMVKSTTSLTSSSTSGSSDKV [MLH1]	5.47 ± 0.39	5.59 ± 0.17		
EEEKLKAEEIRIKGKYNISSEDYR [KCNK9]	5.21 ± 0.19	5.29 ± 0.13		
LLLGAGESGKSTIVKQMKIIHEAG [GNAI1]	2.51 ± 0.47	2.54 ± 0.65		
TLDKRWRVRKEAMMGLAQIYKKYA [PDS5B]	2.23 ± 0.21	2 ± 0.14		
NILFYVVGLRNTLTRIRKWIEHSK [GLT8D2]	2.59 ± 0.18	2.76 ± 0.46		
RSHEGETAYIRVKVDGPRSPSYGR [SRSF1]	3.83 ± 0.19	3.73 ± 0.32		
